What was measured:
[1] = system: HBEGF locus; assay type: cell-based, human; settings: for Log2 (fold change): high-throughput screen of dXR repression of the HBEGF gene, change in abundance of each domain in the library before and after diphtheria toxin selection
[2] = system: B2M locus; assay: B2M repression (HLA-negative cells by flow cytometry) in HEK293T cells transfected with LTRP plasmids; assay type: cell-based, human; settings: for B2M repression by LTRP5 constructs with enhanced repressor domains: LTRP5 without ADD, scaffold 316 spacer 7.165, days 6/7 to 26/27, vs LTRP5-ZIM3; for Mean % HLA-negative cells: HEK293T cells, B2M-targeting spacer 7.37
Procedure: Each construct was tested in triplicate.
Each construct was tested in triplicate. […] Cells were harvested for repression analysis at day 5, day 12, day 21, and day 51 post-transfection.
Each construct was tested in triplicate. […] Cells were harvested for repression analysis at day 8, day 13, day 20, and day 27 post-transfection. […] In addition, cells were also harvested on day 5 post-transfection for gDNA extraction for bisulfite sequencing to assess off-target methylation at the non-targeted VEGFA locus, which was performed using similar methods as described in Example 13.
HEK293T cells were transfected as described in Example 14, except that the cells were transfected with 50 ng each of a plasmid encoding the LTRP construct and a plasmid encoding the gRNA. […] 72 of the 95 top repressor domains were assessed together in one experiment where B2M expression was measured at 7, 14, 19, and 26 days after transfection, and the data shown in Tables 57-60.

[3] = system: HBEGF gene; assay type: cell-based, human; settings: HEK293T; HBEGF-targeting spacer; toxin 0-2000 ng/mL
[4] = system: B2M locus; assay: B2M reactivation by 5-azadC (DNMT1 inhibitor) in transfected HEK293T cells; settings: B2M-targeting gRNA, 5-azadC 0-20 uM
Procedure: These transfected HEK293T cells were subsequently re-seeded at ˜30,000 cells well of a 96-well plate and were treated with 5-aza-2′-deoxycytidine (5-azadC), a DNMT1 inhibitor, at concentrations ranging from 0 μM to 20 μM. […] Treatments for each dose of 5-azadC for each experimental condition were performed in triplicates.

[5] = HEK293T, 50 days post-transfection, spacer 7.37 (B2M)
[6] = HEK293T, 73 days post-transfection, spacer 7.37 (B2M)

B1: DOMAIN_26749: repressor domain derived from the king cobra, Ophiophagus hannah; SEQ ID NO: 135 (protein)
chain: STPVTFEDVVVYFTAAEWVHLTNWQRDFYQAVMMETYELVASVAGDGVPMAEDEEGGVERPVWQYIPRGKRRRKTPQPRAD
modifications: Ophiophagus hannah
Q: What does the source list for B1?
A: log 2 (fold change) of abundance before and after selection ([1]; HEK293T, dCasX491 fusion, scaffold 174 spacer 34.28, 2 ng/ml diphtheria toxin for 48 hours): highest log 2 (fold change); Log2 (fold change) [1]: 5.4323; B2M repression by LTRP5 constructs with enhanced repressor domains ([2]; HEK293T): most effective repressor domains

B2: CasX 491: catalytically-active CasX variant 491 (protein)
chain: QEIKRINKIRRRLVKDSNTKKAGKTGPMKTLLVRVMTPDLRERLENLRKKPENIPQPISNTSRANLNKLLTDYTEMKKAILHVYWEEFQKDPVGLMSRVAQPASKKIDQNKLKPEMDEKGNLTTAGFACSQCGQPLFVYKLEQVSEKGKAYTNYFGRCNVAEHEKLILLAQLKPEKDSDEAVTYSLGKFGQRALDFYSIHVTKESTHPVKPLAQIAGNRYASGPVGKALSDACMGTIASFLSKYQDIIIEHQKVVKGNQKRLESLRELAGKENLEYPSVTLPPQPHTKEGVDAYNEVIARVRMWVNLNLWQKLKLSRDDAKPLLRLKGFPSFPLVERQANEVDWWDMVCNVKKLINEKKEDGKVFWQNLAGYKRQEALRPYLSSEEDRKKGKKFARYQLGDLLLHLEKKHGEDWGKVYDEAWERIDKKVEGLSKHIKLEEERRSEDAQSKAALTDWLRAKASFVIEGLKEADKDEFCRCELKLQKWYGDLRGKPFAIEAENSILDISGFSKQYNCAFIWQKDGVKKLNLYLIINYFKGGKLRFKKIKPEAFEANRFYTVINKKSGEIVPMEVNFNFDDPNLIILPLAFGKRQGREFIWNDLLSLETGSLKLANGRVIEKTLYNRRTRQDEPALFVALTFERREVLDSSNIKPMNLIGVDRGENIPAVIALTDPEGCPLSRFKDSLGNPTHILRIGESYKEKQRTIQAKKEVEQRRAGGYSRKYASKAKNLADDMVRNTARDLLYYAVTQDAMLIFENLSRGFGRQGKRTFMAERQYTRMEDWLTAKLAYEGLSKTYLSKTLAQYTSKTCSNCGFTITSADYDRVLEKLKKTATGWMTTINGKELKVEGQITYYNRYKRQNVVKDLSVELDRLSEESVNNDISSWTKGRSGEALSLLKKRFSHRPVQEKFVCLNCGFETHADEQAALNIARSWLFLRSQEYKKYQTNKTTGNTDKRAFVETWQSFYRKKLKEVWKPAV
modifications: listed as DNA
Q: B2 was tested. Which “protection from diphtheria toxin” value [3] did it give?
A: protects at all doses

Q: What about the “Mean % HLA-negative cells” value ([2]; 6 days post-transfection) of the same molecule?
A: 76.167%

Q: What about the “Mean % HLA-negative cells” value ([2]; 13 days post-transfection) of the same molecule?
A: 81.167%

Q: And the “Mean % HLA-negative cells” value ([2]; 20 days post-transfection)?
A: 83.633%

Q: What about the “Mean % HLA-negative cells” value ([2]; 27 days post-transfection) of the same molecule?
A: 80.933%

Q: What about the “% HLA-negative cells (mean)” value ([2]; HEK293T, 50 days post-transfection, spacer 0.0 (non-targeting)) of the same molecule?
A: 0.29%

Q: And the “% HLA-negative cells (mean)” value [2, 5]?
A: 76.57%

Q: What about the “% HLA-negative cells (mean)” value ([2]; HEK293T, 73 days post-transfection, spacer 0.0 (non-targeting)) of the same molecule?
A: 0.71%

Q: What about the “% HLA-negative cells (mean)” value [2, 6] of the same molecule?
A: 73.30%

Q: And the “B2M repression (HLA-negative cells)” value ([2]; HEK293T, LTRP #1, #4, #5 plasmids and controls, scaffold 174 spacer 7.37, time course to 73 days)?
A: durable silencing of the B2M expression

Q: What about the “repression of B2M expression by day 58” value ([2]; HEK293T, plasmid with B2M-targeting gRNA scaffold 174 spacer 7.37) of the same molecule?
A: ~75%

Q: What about the “reactivation of the B2M gene upon 5-azadC treatment” value [4] of the same molecule?
A: did not exhibit reactivation of the B2M gene

B3: dCasX491: catalytically-dead CasX variant, SEQ ID NO: 4 (protein)
chain: QEIKRINKIRRRLVKDSNTKKAGKTGPMKTLLVRVMTPDLRERLENLRKKPENIPQPISNTSRANLNKLLTDYTEMKKAILHVYWEEFQKDPVGLMSRVAQPASKKIDQNKLKPEMDEKGNLTTAGFACSQCGQPLFVYKLEQVSEKGKAYTNYFGRCNVAEHEKLILLAQLKPEKDSDEAVTYSLGKFGQRALDFYSIHVTKESTHPVKPLAQIAGNRYASGPVGKALSDACMGTIASFLSKYQDIIIEHQKVVKGNQKRLESLRELAGKENLEYPSVTLPPQPHTKEGVDAYNEVIARVRMWVNLNLWQKLKLSRDDAKPLLRLKGFPSFPLVERQANEVDWWDMVCNVKKLINEKKEDGKVFWQNLAGYKRQEALRPYLSSEEDRKKGKKFARYQLGDLLLHLEKKHGEDWGKVYDEAWERIDKKVEGLSKHIKLEEERRSEDAQSKAALTDWLRAKASFVIEGLKEADKDEFCRCELKLQKWYGDLRGKPFAIEAENSILDISGFSKQYNCAFIWQKDGVKKLNLYLIINYFKGGKLRFKKIKPEAFEANRFYTVINKKSGEIVPMEVNFNFDDPNLIILPLAFGKRQGREFIWNDLLSLETGSLKLANGRVIEKTLYNRRTRQDEPALFVALTFERREVLDSSNIKPMNLIGVARGENIPAVIALTDPEGCPLSRFKDSLGNPTHILRIGESYKEKQRTIQAKKEVEQRRAGGYSRKYASKAKNLADDMVRNTARDLLYYAVTQDAMLIFANLSRGFGRQGKRTFMAERQYTRMEDWLTAKLAYEGLSKTYLSKTLAQYTSKTCSNCGFTITSADYDRVLEKLKKTATGWMTTINGKELKVEGQITYYNRYKRQNVVKDLSVELDRLSEESVNNDISSWTKGRSGEALSLLKKRFSHRPVQEKFVCLNCGFETHAAEQAALNIARSWLFLRSQEYKKYQTNKTTGNTDKRAFVETWQSFYRKKLKEVWKPAV
Q: With B3 as the molecule, how does the “% HLA-negative cells (mean)” value [2, 5] read?
A: 0.49%

Q: What about the “% HLA-negative cells (mean)” value [2, 6] of the same molecule?
A: 0.83%

B4: DOMAIN_29304: one of the nine most effective repressor domains (protein, listed as Peromyscus maniculatus)
chain: VTYNDVHVDITQEEWALMDPSQRNLYKDVMVETYMNLTAIGYNWENLEVEEPCQNPLKHGRHERPHTGEKPYEYNQCGKAFAQP
Q: For B4, which “Log2 (fold change)” value [1] is on record?
A: 4.0496

Q: And the “B2M repression by LTRP5 constructs with enhanced repressor domains” value ([2]; HEK293T)?
A: most effective repressor domains

Reference: patent US12551573B2, “Compositions and methods for the targeting of PCSK9” (Scribe Therapeutics Inc., priority 2022, dated 2026)
